Measurements reported in IntAct's records for PubMed 30774623.

Target: agrl1_mouse Adgrl1 (UniProt Q80TR1)
Sequence of UniProt Q80TR1 (Q80TR1 whole entry): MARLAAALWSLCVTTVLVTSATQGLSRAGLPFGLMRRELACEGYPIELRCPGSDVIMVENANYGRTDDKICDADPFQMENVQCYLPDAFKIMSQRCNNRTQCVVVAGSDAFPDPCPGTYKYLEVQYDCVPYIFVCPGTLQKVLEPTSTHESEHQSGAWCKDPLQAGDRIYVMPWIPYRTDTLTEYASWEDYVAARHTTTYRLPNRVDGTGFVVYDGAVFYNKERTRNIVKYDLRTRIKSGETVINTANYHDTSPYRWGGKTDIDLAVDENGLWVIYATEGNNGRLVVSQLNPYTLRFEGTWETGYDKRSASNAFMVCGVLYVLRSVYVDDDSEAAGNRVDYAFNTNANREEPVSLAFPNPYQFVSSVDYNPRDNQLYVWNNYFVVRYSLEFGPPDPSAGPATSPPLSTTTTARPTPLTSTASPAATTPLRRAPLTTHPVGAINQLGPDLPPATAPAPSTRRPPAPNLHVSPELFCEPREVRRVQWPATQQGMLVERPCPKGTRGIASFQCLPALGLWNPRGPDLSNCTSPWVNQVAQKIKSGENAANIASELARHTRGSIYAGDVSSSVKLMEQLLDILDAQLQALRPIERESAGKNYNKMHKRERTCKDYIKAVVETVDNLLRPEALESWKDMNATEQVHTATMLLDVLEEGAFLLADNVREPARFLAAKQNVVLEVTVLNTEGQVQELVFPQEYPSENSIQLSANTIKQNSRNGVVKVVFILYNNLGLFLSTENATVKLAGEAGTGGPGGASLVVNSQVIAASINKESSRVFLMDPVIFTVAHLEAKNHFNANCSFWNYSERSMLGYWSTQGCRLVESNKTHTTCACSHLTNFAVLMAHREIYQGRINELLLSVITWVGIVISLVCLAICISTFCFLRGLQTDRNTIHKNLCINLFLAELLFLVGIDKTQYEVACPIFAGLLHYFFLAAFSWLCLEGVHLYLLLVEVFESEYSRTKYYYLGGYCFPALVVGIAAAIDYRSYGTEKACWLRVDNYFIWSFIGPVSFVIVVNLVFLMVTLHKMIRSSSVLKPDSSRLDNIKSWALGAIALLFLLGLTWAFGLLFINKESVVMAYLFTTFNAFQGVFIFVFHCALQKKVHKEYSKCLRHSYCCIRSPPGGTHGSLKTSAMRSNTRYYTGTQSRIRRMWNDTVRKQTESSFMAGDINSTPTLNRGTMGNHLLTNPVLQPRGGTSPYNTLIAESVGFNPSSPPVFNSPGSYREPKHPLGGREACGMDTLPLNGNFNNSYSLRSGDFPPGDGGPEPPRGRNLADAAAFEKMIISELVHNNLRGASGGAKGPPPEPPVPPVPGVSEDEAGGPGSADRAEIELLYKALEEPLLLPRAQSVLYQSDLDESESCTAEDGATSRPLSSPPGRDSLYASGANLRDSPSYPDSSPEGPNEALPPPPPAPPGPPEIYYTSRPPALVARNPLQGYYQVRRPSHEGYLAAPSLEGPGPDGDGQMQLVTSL

**Q.** With Teneurin-1 (Mus musculus), Q9WTS4 R37K as the substance, how does the “effect of a mutation on the interaction” value read?
**A.** Its value is “with no effect”.
